Data taken from article PMC10381965.

Target: CENP-ΔQU complex (CENP-Q^1–294 and CENP-U^30–266) (S. cerevisiae) (UniProt P53298)
Test: ITC; CENP-A^END peptides (0.87 to 2.18 mM) titrated into CENP-QU (66 to 180 μM) in the cell; 20°C; 20 mM Hepes pH 7.5, 100 mM NaCl, 1 mM TCEP; single-site binding model; triplicate

Binder | Kd | fold reduction of affinity against the unchanged CENP-A^END peptide
Ac-AGDQQSINDRALSLLQRTRATKNW-NH2 [CENP-A^END-2 peptide] | 1 µM | –
Ac-AGDQQSINDRALSLLQRTRATKNLFPRREERRRW-NH2 [CENP-A^END-3 peptide] | 0.72 µM | –

Further lines, results first:

Kd | fold reduction of affinity against the unchanged CENP-A^END peptide | Binder
11.5 µM | – | Ac-DASINDRALSLLQRTRATDAW-NH2 [CENP-A^END-1 peptide]
– | 15 fold | Ac-AGDQQSINDAALSLLQRTRATKNW-NH2 [CENP-A^END-2-R37A peptide]
